Laboratory results: patent US20130045219A1 (UCB, published 2013)
Read-outs that look alike come from different tables or passages of the source.

T1: CD154 expressed on D1.1 Jurkat cells (UniProt P29965 1-261, limits assumed)
T1 sequence (looked up): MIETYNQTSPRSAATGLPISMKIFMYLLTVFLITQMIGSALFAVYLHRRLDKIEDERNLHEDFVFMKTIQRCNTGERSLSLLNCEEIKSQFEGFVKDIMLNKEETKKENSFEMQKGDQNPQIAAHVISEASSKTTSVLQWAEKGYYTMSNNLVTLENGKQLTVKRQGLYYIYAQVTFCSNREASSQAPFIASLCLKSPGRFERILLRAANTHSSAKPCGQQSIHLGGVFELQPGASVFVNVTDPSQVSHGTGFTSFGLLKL

T2: soluble human CD154 protein (extracellular domain) (human, UniProt P29965 116-261)
T2 construct: also called sCD154; recombinant extracellular domain of human CD154
T2 sequence: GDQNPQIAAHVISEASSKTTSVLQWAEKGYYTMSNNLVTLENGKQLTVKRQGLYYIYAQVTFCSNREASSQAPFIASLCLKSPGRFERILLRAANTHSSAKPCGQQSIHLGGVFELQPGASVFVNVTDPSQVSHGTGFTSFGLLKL

B1: 342 Fab'-PEG (Fab, V domains shown)
VH: EVQLVESGGGLVQPGGSLRLSCAVSGFSSTNYHVHWVRQAPGKGLEWMGVIWGDGDTSYNSVLKSRFTISRDTSKNTVYLQMNSLRAEDTAVYYCARQLTHYYVLAAWGQGTLVTVSS
VL: DIQMTQSPSSLSASVGDRVTITCRASEDLYYNLAWYQRKPGKAPKLLIYDTYRLADGVPSRFSGSGSGTDYTLTISSLQPEDFASYYCQQYYKFPFTFGQGTKVEIKR
modifications: PEG-maleimide on the single cysteine at the hinge
B2: 342 Di-Fab' (other)
heavy chain (Fab'): EVQLVESGGGLVQPGGSLRLSCAVSGFSSTNYHVHWVRQAPGKGLEWMGVIWGDGDTSYNSVLKSRFTISRDTSKNTVYLQMNSLRAEDTAVYYCARQLTHYYVLAAWGQGTLVTVSSASTKGPSVFPLAPSSKSTSGGTAALGCLVKDYFPEPVTVSWNSGALTSGVHTFPAVLQSSGLYSLSSVVTVPSSSLGTQTYICNVNHKPSNTKVDKKVEPKSCDKTHTCAA
light chain: DIQMTQSPSSLSASVGDRVTITCRASEDLYYNLAWYQRKPGKAPKLLIYDTYRLADGVPSRFSGSGSGTDYTLTISSLQPEDFASYYCQQYYKFPFTFGQGTKVEIKRTVAAPSVFIFPPSDEQLKSGTASVVCLLNNFYPREAKVQWKVDNALQSGNSQESVTEQDSKDSTYSLSSTLTLSKADYEKHKVYACEVTHQGLSSPVTKSFNRGEC
modifications: the two Fab' are cross-linked at the hinge; the linker is not described for this molecule
B3: 342 Di-Fab'-PEG (other)
heavy chain (Fab'): B2 heavy chain (Fab')
light chain: B2 light chain
modifications: the two Fab' are cross-linked and PEGylated; paragraph 96 describes DFM-PEG as two Fab' cross-linked with a PEGylated dimaleimide bridge
B4: 342 Tri-Fab' (other)
heavy chain (Fab'): B2 heavy chain (Fab')
light chain: B2 light chain
modifications: the three Fab' are cross-linked at the hinge; the linker is not described
B5: 342 Tri-Fab'-PEG (other)
heavy chain (Fab'): B2 heavy chain (Fab')
light chain: B2 light chain
modifications: the three Fab' are cross-linked and PEGylated; the chemistry is not described
B6: 342 aglycosyl IgG4 (antibody, V domains shown)
VH: B1 VH
VL: B1 VL
modifications: S228P and T299A (Kabat EU) are contained in SEQ ID NO: 72; not N-glycosylated
notes: also called aglycosylated hu342; hu342 aglyP-huIgG4
B7: anti-CD154 antibody 338 (Fab, V domains shown)
VH: QVQLTESGPGLVQPSQTLSLTCTVSGFSLTSHHISWVRQPPGKGLEWVGVMWNDGGTLYNSALKSRPSISRDTSKSQVFLKMSSLQTEDTATYYCARGKMHYYVLDAWGQGASVTVS
VL: DIQMTQSPASLSASLGETVTIECRTSEDIYSNLAWYRQRPGKSPQLLIYDTNRLADGVPSRFSGSGSGTQYSLKINSLQSEDVASYFCQHYSNFPWTFGGDTKLELK
B8: chimeric 342 Fab′ (unlabeled 342 Fab′ of FIG. 29C) (Fab, V domains shown)
VH: QVQLKESGPGLVQPSETLSLTCTVSGFSSTNYHVHWVRQPPGKSLEWMGVIWGDGDTSYNSVLKSRLSITRDTSRSQVFLKMSSLQTEDTATYYCARQLTHYYVLAAWGQGASVTVS
VL: DIQMTQSPASLSASLGETVTVECRASEDLYYNLAWYQRKPGNSPQLLIYDTYRLADGVPSRFSGSGSGTQYSLKINTLPSGDVASYFCQQYYKFPFTFGSGTKLELK
notes: also called ch342 Fab
B9: anti-CD154 antibody 381 Fab′ (Fab, V domains shown)
VH: EVPLVESGGGLVQPGRSMKLSCVASGFTFSDYYMAWVRQAPKKGLEWVASISYEGSSTYYGDSVKGRFTVSRDIAKSTLYLQMHSLKSEDTAIYYCARHDDSPGYYFDYWGQGVMVTVS
VL: DIQMTQSPTSLSASLGETVSIECLAGEDISNVLAWYQQKSGGSPQLLIYAANRLQDGVPSRFSGSGSGTRYSLKISGMRPEDEADYFCQQTFRYPLTFGSGTKLELK

Assays:
[1] = molecular target: T1, CD154 expressed on D1.1 Jurkat cells; experiment: cell-based or functional assay
[2] = molecular target: T1, CD154 expressed on D1.1 Jurkat cells; experiment: flow cytometry: inhibition of the binding of hCD40-mFc-PE to CD154-expressing D1.1 Jurkat cells by serially diluted antibody (Example 5)
Protocol: (§1) A flow cytometry-based assay was used to assess the binding of labeled CD40 to CD154-expressing D1.1 cells. D1.1 Jurkat cells (American Type Culture Collection) were maintained in RPMI 1640 medium (Gibco, 31870-025)) containing 10% (v/v) fetal calf serum (FCS), 2 mM glutamine (Invitrogen, 23030024), 1 mM sodium pyruvate (Invitrogen, 11360-039), 1% (v/v) D-(+)-glucose (Sigma, G8769) & 10 mM HEPES (Sigma, H0887). At time of assay, 100,000 D1.1 cells were incubated in 100 μL RPMI 1640 medium+10% FCS, in the presence or absence of serially diluted anti-CD154 antibody for 15 minutes at room temperature. 5 μL of a 1:75 dilution of hCD40-mFc-PE (Alexis Corp, ANC-504-050) was then added and incubated for a further 30 minutes at room temperature. After washing twice in phosphate-buffered saline (PBS) containing 1% (w/v) bovine serum albumin (BSA fraction V, Serologicals Proteins Inc, 81-068-5) and 0.02% (w/v) sodium azide (BDH, 103692K), cells were resuspended in 200 μL PBS/1% BSA/0.02% sodium azide and flow cytometry performed on a Becton Dickinson FACScan. The values for geometric mean fluorescence (FL2) were assessed in all cases.

[3] = molecular target: T2, soluble human CD154 protein …; experiment: Biacore (SPR): antibody or fragment captured on immobilized anti-human IgG (Fc- or Fab'-specific) F(ab')2, recombinant extracellular domain of human CD154 titrated over it (Example 4)
Protocol: (§2) Catalogue Number: BR-1001-88, Biacore AB, Uppsala, Sweden. Buffer stored at 4° C. Immobilization buffer is Acetate 5.0 (being 10 mM sodium acetate pH 5.0). Catalogue number: BR-1003-51, Biacore AB, Uppsala, Sweden. Buffer stored at 4° C. Ligand capture: Affinipure F(ab′)₂ fragment goat anti-human IgG, Fab′ fragment specific (Catalogue number: 109-006-097) or Fc fragment specific (Catalogue number: 109-006-098), Jackson ImmunoResearch Inc (Pennsylvania, USA). Reagents stored at 4° C. […] Analyte: Recombinant extracellular domain of human CD154. Material was prepared at 2 mg/mL (40 μM) in phosphate-buffered saline, stored at 4° C., and diluted in HBE-EP running buffer for the assays. […] Regeneration Solution: 40 mM HCl prepared by dilution with distilled water from an 11.6 M stock solution (BDH, Poole, England. Catalogue number: 101254H). 5 mM NaOH prepared by dilution with distilled water from a 50 mM stock solution. Catalogue number: BR-1003-58, Biacore AB, Uppsala, Sweden. Assay Method: BIA (Biamolecular Interaction Analysis) was performed using a Biacore® 3000 (Biacore AB). Affinipure F(ab′)₂ fragment goat anti-human IgG, Fc- or Fab′-fragment specific (Jackson ImmunoResearch) were immobilized on a CM5 Sensor Chip via amine coupling chemistry to a capture level of ≈6000 response units (RUs). HBS-EP buffer (10 mM HEPES pH 7.4, 0.15 M NaCl, 3 mM EDTA, 0.005% Surfactant P20, Biacore AB) was used as the running buffer with a flow rate of 10 μl/min. Anti-CD154 antibodies or Fab fragments were used at concentrations such that, once captured by the immobilized anti-human IgG-Fc (or anti-human IgG Fab′) surface, gave a signal of ≈200 RUs. Human CD154 was titrated over the captured antibody, at various concentrations. 90 μL of CD154 was injected over the surface (association phase), followed by a 240 second dissociation phase, all at a flow rate of 30 μl/min. […] Background subtraction binding curves were analyzed using the BIAevaluation software (version 3.2) following standard procedures. Kinetic parameters were determined from the fitting algorithm.

[4] = molecular target: T1, CD154 expressed on D1.1 Jurkat cells; experiment: flow cytometry competition binding assay: serially diluted antibody against biotinylated 342 Fab on CD154-expressing D1.1 Jurkat cells, streptavidin-R-phycoerythrin detection (Example 6)
Protocol: A flow cytometry-based assay was used to assess the binding of anti-CD154 antibody to CD154-expressing D1.1 cells. D1.1 Jurkat cells (American Type Culture Collection) were maintained in RPMI 1640 medium (Gibco, 31870-025) containing 10% (v/v) fetal calf serum (FCS), 2 mM glutamine (BioWhittaker, 17-605E) and […] (Mediatech, 30002107). […] The cells were washed three times in FACS buffer with centrifugation at 290×g for 3 minutes in between washes. A 1:500 dilution of streptavadin-R-phycoerythrin conjugate (Jackson Immunoresearch, 016-110-084) in […] FACS buffer was added and the cells were incubated for one hour at 4° C. The cells were washed once and fixed in PBS with 3% formaldehyde at room temperature for 10 minutes. The cells were resuspended in FACS buffer and run on a FacsCalibur (BD). The values for geometric mean fluorescence (FL2) were assessed in all cases.

[5] = molecular target: T1, CD154 expressed on D1.1 Jurkat cells; experiment: cell-based or functional assay; remark: listed apart in the source
[6] = molecular target: T1, CD154 expressed on D1.1 Jurkat cells; experiment: flow cytometry: inhibition of the binding of hCD40-mFc-PE to CD154-expressing D1.1 Jurkat cells by serially diluted chimaeric Fab' (Example 5)
Protocol: as §1

[7] = molecular target: T2, soluble human CD154 protein …; experiment: Biacore (SPR): antibody or Fab' captured on immobilized anti-human IgG (Fc- or Fab'-specific) F(ab')2, recombinant extracellular domain of human CD154 titrated over it (Example 4); chimaeric Fab'
Protocol: as §2

Row | Binder | IC50 of inhibition of ICAM-1 (CD54) upregulation on CD40-expressing Ramos B cells co-cultured with CD154-expressing D1.1 Jurkat cells [1] | IC50 [2] | Kd [3] | IC50 [4] | IC50 of inhibition of ICAM-1 (CD54) upregulation on CD40-expressing Ramos B cells co-cultured with CD154-expressing D1.1 Jurkat cells [5] | IC50 [6] | Kd [7]
1 | B1 | 127 ng/mL | 0.035 µg/mL | 0.05 nM | 0.113 nM |  |  | 
2 | B2 | 22 ng/mL | 0.009 µg/mL |  |  |  |  | 
3 | B3 | 58 ng/mL | 0.032 µg/mL | 0.045 nM | 0.026 nM |  |  | 
4 | B4 | 31 ng/mL | 0.009 µg/mL |  |  |  |  | 
5 | B5 | 36 ng/mL | 0.008 µg/mL |  |  |  |  | 
6 | B6 | 48 ng/mL | 0.025 µg/mL |  | 0.035 nM |  |  | 
7 | B7 |  |  |  |  | 192 ng/mL | 6 ng/mL | 0.015 nM
8 | B8 |  |  |  |  | 53 ng/mL | 8 ng/mL | 0.016 nM
9 | B9 |  |  |  |  | 100 ng/mL | 22 ng/mL | 0.005 nM
